Measurements from article doi:10.1101/368936.

Tests used:
[1] = target: Mdb1-pT113 phosphopeptide (fluorescein-labelled) (S. pombe); experiment: fluorescence polarisation
[2] = target: RHNO1-pT202 phospho-peptide (human); experiment: fluorescence polarisation

Rad4-BRCT1,2 K155E (domain or fragment)
fold reduction of binding against wild type [1]: 20 fold

TOPBP1-BRCT0,1,2 segment (wild type, recombinant) (domain or fragment)
fold tighter binding than RAD9-pS387 [2]: 10 fold
